Experimental data: patent US20230272011A1 (AVACTA LIFE SCIENCES, published 2023)

Key:
[1] = target: T1, human PD-L1-Fc (R&D Systems) chimeric protein (human, UniProt Q9NZQ7 19-239); test: binding ELISA on coated human PD-L1 Fc ('Anti-PD-L1 ELISA')
T1 construct: Bought reagent; also called rhPD-L1-Fc; huPD-L1; Fc part of the bought chimera not given, not described
Description: Briefly, human PD-L1 Fc (R&D Systems) chimeric protein was coated onto 96 well plates at 0.5 μg/mL in carbonate buffer. After saturation with 5% casein/PBS buffer, plates were washed and a dilution of conjugated AFFIMER® polypeptide or unconjugated control were incubated for 90 minutes. Plates were then washed, a biotinylated polyclonal anti-cystatin A antibody (R&D Systems) added, and the plates incubated for 1 hour. Plates were washed and bound AFFIMER® polypeptide was detected using streptavidin-HRP. After a last washing step, TMB was added and the plate was read at 450 nm.

[2] = target: T1, human PD-L1-Fc (R&D Systems) chimeric …; test: binding ELISA on coated human PD-L1-Fc (table on the sheet is headed 'IC50 (nM)'; the text calls these values EC50)
Description: Briefly, human PD-L1-Fc (R&D Systems) chimeric protein was coated on 96 well plates at […] in carbonate buffer. After saturation with 5% casein/PBS buffer, the plates were washed and a dilution of AFFIMER® polypeptides or controls were incubated for 90 minutes. Plates were then washed and a biotinylated polyclonal antibody anti-cystatin A (R&D Systems) was added for 1 hour. Plates were washed and AFFIMER® polypeptides were detected using streptavidin-HRP. After a last washing step, TMB was added for the development of the experiment and plates were read at 450 nm.

human serum albumin [3] = target: T2, human serum albumin (human, UniProt P02768 25-609); test: SPR (Biacore), immobilised HSA, Affimer analyte
T2 construct: mature; Bought protein; biotinylated in the Octet and HTRF assays; also called HSA; HuSA
Description: Affinities for mouse, human, and cynomolgus serum were also measured at pH 7.4 for four (4) AFFIMER® binders using surface plasmon resonance (SPR) (FIG. 5, Table 5). […] A concentration titration of AFFIMER® monomers was run as analyte at a flow rate of 30 μl/min or 60 μl/min. Fc2-1, Fc3-1 and Fc4-1 kinetic data was blank subtracted and fit to a 1:1 Langmuir binding model (BIAcore Evalution software; GE) to calculate KD values. […]

human serum albumin [4] = target: T2, human serum albumin; test: binding ELISA on coated HSA, pH 7.4
Description: After saturation with 5% PBS Casein pH 7.5, plates were washed and a dilution of AFFIMER® polypeptides or controls were incubated for 90 minutes. Plates were then washed, and a biotinylated polyclonal antibody anti-cystatin A (R&D Systems) was added for 1 hour. Plates were washed and AFFIMER® polypeptides were detected using streptavidin-HRP. After a last washing step, TMB was added for the development of the experiment and the plates were read at 450 nm.

[5] = target: T1, human PD-L1-Fc (R&D Systems) chimeric …; test: SPR (Biacore), immobilised rhPD-L1-Fc, Affimer analyte
Description: ILF dimer production from E. coli was performed as described in Example 3. Briefly, protein was purified using three stages: affinity capture, IEX, and preparative SEC. […] To analyze PD-L1-Fc binding kinetics, a Biacore T200 kinetic analysis was performed using running buffer HBS-EP+ and series S sensor CM5 (GE Healthcare) chip Fc2 immobilized with PD-L1-Fc (R&D Systems) in 10 mM sodium acetate pH 4.0 using amine coupling reagents (GE Healthcare). The concentration titration of ILF AFFIMER® polypeptides was run as analyte at a flow rate of 30 μl/min. […] with 3 mM NaOH (GE healthcare) for 20 seconds at 20 μl/min flow rate. The Fc2-1 data blank was subtracted and fit to a 1:1 Langmuir binding model (Biacore evaluation software; GE) to calculate an apparent KD value.
ILF production in E. coli was performed as described in Example 3 using protein purified using affinity capture, IEX, and preparative SEC. Protein purity was assessed using SDS-PAGE and SEC-HPLC.

[6] = target: human PD-L1 (PD-1/PD-L1 blockade Bioassay, Promega) (human, UniProt Q9NZQ7 19-290, limits assumed); test: cell-based or functional assay
[7] = target: T1, human PD-L1-Fc (R&D Systems) chimeric …; test: Biacore single cycle kinetics on human PD-L1 Fc

T1 sequence (Q9NZQ7 19-239, change not shown): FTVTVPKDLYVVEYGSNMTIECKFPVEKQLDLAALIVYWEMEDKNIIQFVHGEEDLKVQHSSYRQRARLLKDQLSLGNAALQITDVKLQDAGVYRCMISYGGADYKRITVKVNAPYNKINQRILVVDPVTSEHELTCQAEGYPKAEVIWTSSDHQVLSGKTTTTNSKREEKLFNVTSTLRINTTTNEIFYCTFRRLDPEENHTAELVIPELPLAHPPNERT
Sequence of human PD-L1 (PD-1/PD-L1 blockade Bioassay, Promega) (Q9NZQ7 19-290 limits assumed): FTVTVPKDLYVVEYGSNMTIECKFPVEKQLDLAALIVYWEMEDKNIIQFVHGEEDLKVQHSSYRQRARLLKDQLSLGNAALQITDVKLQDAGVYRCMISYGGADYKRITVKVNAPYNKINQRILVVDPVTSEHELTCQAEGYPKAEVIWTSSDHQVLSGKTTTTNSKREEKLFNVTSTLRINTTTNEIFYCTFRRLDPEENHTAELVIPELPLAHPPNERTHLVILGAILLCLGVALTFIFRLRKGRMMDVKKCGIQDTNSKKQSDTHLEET

Binder | EC50 (read off the curve) [1] [nM] | EC50 [2] [nM] | Kd (human serum albumin [3]) [nM] | koff (human serum albumin [3]) [s⁻¹] | kon (human serum albumin [3]) [M⁻¹ s⁻¹] | EC50 (human serum albumin [4]) [nM] | Kd [5] [nM] | koff [5] [s⁻¹] | kon [5] [M⁻¹ s⁻¹] | IC50 as headed on the sheet (EC50); PD-1/PD-L1 blockade Bioassay (Promega), fold change relative to assay buffer [6] [nM] | also measured
AVA04-251 BH-800 (designed binder, IRDye 800CW conjugated with maleimide chemistry (C-terminal cysteine construct), E. coli product) MIPRGLSEAKPATPEIQEIVDKVKPQLEEKTNETYGKLEAVQYKTQVLAREGRQDWVLSTNYYIKVRAGDNKYMHLKVFNGPWVPFPHQQLADRVLTGYQVDKNKDDELTGFAEAAAKEAAAKEAAAKEAAAKEAAAKEAAAKMIPRGLSEAKPATPEIQEIVDKVKPQLEEKTNETYGKLEAVQYKTQVLAREGRQDWVLSTNYYIKVRAGDNKYMHLKVFNGPWVPFPHQQLADRVLTGYQVDKNKDDELTGFC | ~0.04 |  |  |  |  |  |  |  |  |  | 
AVA04-251 BH-Cys (designed binder) single chain: MIPRGLSEAKPATPEIQEIVDKVKPQLEEKTNETYGKLEAVQYKTQVLAREGRQDWVLSTNYYIKVRAGDNKYMHLKVFNGPWVPFPHQQLADRVLTGYQVDKNKDDELTGFAEAAAKEAAAKEAAAKEAAAKEAAAKEAAAKMIPRGLSEAKPATPEIQEIVDKVKPQLEEKTNETYGKLEAVQYKTQVLAREGRQDWVLSTNYYIKVRAGDNKYMHLKVFNGPWVPFPHQQLADRVLTGYQVDKNKDDELTGFC | ~0.04 |  |  |  |  |  |  |  |  |  | 
AVA04-251 BH (designed binder, also called anti-PD-L1 parental ILF dimer molecule) MIPRGLSEAKPATPEIQEIVDKVKPQLEEKTNETYGKLEAVQYKTQVLAREGRQDWVLSTNYYIKVRAGDNKYMHLKVFNGPWVPFPHQQLADRVLTGYQVDKNKDDELTGFAEAAAKEAAAKEAAAKEAAAKEAAAKEAAAKMIPRGLSEAKPATPEIQEIVDKVKPQLEEKTNETYGKLEAVQYKTQVLAREGRQDWVLSTNYYIKVRAGDNKYMHLKVFNGPWVPFPHQQLADRVLTGYQVDKNKDDELTGFHHHHHH |  | 0.03 |  |  |  |  | 1.71 | 0.00129 | 752000 | 893 | 
AVA04-251 XT14 (designed binder) MIPRGLSEAKPATPEIQEIVDKVKPQLEEKTNETYGKLEAVQYKTQVLAREGRQDWVLSTNYYIKVRAGDNKYMHLKVFNGPWVPFPHQQLADRVLTGYQVDKNKDDELTGFAEAAAKEAAAKEAAAKEAAAKEAAAKEAAAKMIPRGLSEAKPATPEIQEIVDKVKPQLEEKTNETYGKLEAVQYKTQVLAREGRQDWVLSTNYYIKVRAGDNKYMHLKVFNGPWVPFPHQQLADRVLTGYQVDKNKDDELTGFAEAAAKEAAAKEAAAKEAAAKEAAAKEAAAKMIPRGLSEAKPATPEIQEIVDKVKPQLEEKTNETYGKLEAVQYKTQVLANFFQRRWPGSTNYYIKVRAGDNKYMHLKVFNGPWKFRNTDRGADRVLTGYQVDKNKDDELTGFHHHHHH |  | 0.033 | 8.75 | 0.00282 | 322000 | 0.062 | 0.504 | 0.00042 | 834000 | 176 | Kd [7]: 0.307 nM; koff [7]: 0.000277 s⁻¹; kon [7]: 903000 M⁻¹ s⁻¹
AVA04-251 XT14-800 (designed binder, IRDye 800CW conjugated with maleimide chemistry (C-terminal cysteine construct)) MIPRGLSEAKPATPEIQEIVDKVKPQLEEKTNETYGKLEAVQYKTQVLAREGRQDWVLSTNYYIKVRAGDNKYMHLKVFNGPWVPFPHQQLADRVLTGYQVDKNKDDELTGFAEAAAKEAAAKEAAAKEAAAKEAAAKEAAAKMIPRGLSEAKPATPEIQEIVDKVKPQLEEKTNETYGKLEAVQYKTQVLAREGRQDWVLSTNYYIKVRAGDNKYMHLKVFNGPWVPFPHQQLADRVLTGYQVDKNKDDELTGFAEAAAKEAAAKEAAAKEAAAKEAAAKEAAAKMIPRGLSEAKPATPEIQEIVDKVKPQLEEKTNETYGKLEAVQYKTQVLANFFQRRWPGSTNYYIKVRAGDNKYMHLKVFNGPWKFRNTDRGADRVLTGYQVDKNKDDELTGFC | ~0.02 |  |  |  |  |  |  |  |  |  | 

Now from value to binder, other results behind:

EC50 (read off the curve) [1] [nM] | EC50 [2] [nM] | Kd (human serum albumin [3]) [nM] | koff (human serum albumin [3]) [s⁻¹] | kon (human serum albumin [3]) [M⁻¹ s⁻¹] | EC50 (human serum albumin [4]) [nM] | Kd [5] [nM] | koff [5] [s⁻¹] | kon [5] [M⁻¹ s⁻¹] | IC50 as headed on the sheet (EC50); PD-1/PD-L1 blockade Bioassay (Promega), fold change relative to assay buffer [6] [nM] | Binder | also measured
 | 0.11 | 3.95 | 0.00324 | 821000 | 0.059 |  |  |  |  | AVA04-251 XT16 (designed binder) MIPRGLSEAKPATPEIQEIVDKVKPQLEEKTNETYGKLEAVQYKTQVLANFFQRRWPGSTNYYIKVRAGDNKYMHLKVFNGPWKFRNTDRGADRVLTGYQVDKNKDDELTGFAEAAAKEAAAKEAAAKEAAAKEAAAKEAAAKMIPRGLSEAKPATPEIQEIVDKVKPQLEEKTNETYGKLEAVQYKTQVLAREGRQDWVLSTNYYIKVRAGDNKYMHLKVFNGPWVPFPHQQLADRVLTGYQVDKNKDDELTGFAEAAAKEAAAKEAAAKEAAAKEAAAKEAAAKMIPRGLSEAKPATPEIQEIVDKVKPQLEEKTNETYGKLEAVQYKTQVLAREGRQDWVLSTNYYIKVRAGDNKYMHLKVFNGPWVPFPHQQLADRVLTGYQVDKNKDDELTGFHHHHHH | 
~0.02 |  |  |  |  |  |  |  |  |  | AVA04-251 XT14-Cys (designed binder) single chain: MIPRGLSEAKPATPEIQEIVDKVKPQLEEKTNETYGKLEAVQYKTQVLAREGRQDWVLSTNYYIKVRAGDNKYMHLKVFNGPWVPFPHQQLADRVLTGYQVDKNKDDELTGFAEAAAKEAAAKEAAAKEAAAKEAAAKEAAAKMIPRGLSEAKPATPEIQEIVDKVKPQLEEKTNETYGKLEAVQYKTQVLAREGRQDWVLSTNYYIKVRAGDNKYMHLKVFNGPWVPFPHQQLADRVLTGYQVDKNKDDELTGFAEAAAKEAAAKEAAAKEAAAKEAAAKEAAAKMIPRGLSEAKPATPEIQEIVDKVKPQLEEKTNETYGKLEAVQYKTQVLANFFQRRWPGSTNYYIKVRAGDNKYMHLKVFNGPWKFRNTDRGADRVLTGYQVDKNKDDELTGFC | 
 | 0.064 | 5.2 | 0.0029 | 557000 | 0.039 | 0.704 | 0.000607 | 863000 | 434 | AVA04-251 XT15 (designed binder) MIPRGLSEAKPATPEIQEIVDKVKPQLEEKTNETYGKLEAVQYKTQVLAREGRQDWVLSTNYYIKVRAGDNKYMHLKVFNGPWVPFPHQQLADRVLTGYQVDKNKDDELTGFAEAAAKEAAAKEAAAKEAAAKEAAAKEAAAKMIPRGLSEAKPATPEIQEIVDKVKPQLEEKTNETYGKLEAVQYKTQVLANFFQRRWPGSTNYYIKVRAGDNKYMHLKVFNGPWKFRNTDRGADRVLTGYQVDKNKDDELTGFAEAAAKEAAAKEAAAKEAAAKEAAAKEAAAKMIPRGLSEAKPATPEIQEIVDKVKPQLEEKTNETYGKLEAVQYKTQVLAREGRQDWVLSTNYYIKVRAGDNKYMHLKVFNGPWVPFPHQQLADRVLTGYQVDKNKDDELTGFHHHHHH | 
